This is an account of results in patent US20240076389A1 (NATIONAL RESEARCH COUNCIL OF CANADA, published 2024).

For test [1], the target named is T1, mouse AXL extracellular domain (Sino cat. 51026-M08H) (mouse, UniProt Q00993 19-445).
T1 construct: extracellular domain; Bought protein; also called mouse AXL ECD
T1 sequence (looked up): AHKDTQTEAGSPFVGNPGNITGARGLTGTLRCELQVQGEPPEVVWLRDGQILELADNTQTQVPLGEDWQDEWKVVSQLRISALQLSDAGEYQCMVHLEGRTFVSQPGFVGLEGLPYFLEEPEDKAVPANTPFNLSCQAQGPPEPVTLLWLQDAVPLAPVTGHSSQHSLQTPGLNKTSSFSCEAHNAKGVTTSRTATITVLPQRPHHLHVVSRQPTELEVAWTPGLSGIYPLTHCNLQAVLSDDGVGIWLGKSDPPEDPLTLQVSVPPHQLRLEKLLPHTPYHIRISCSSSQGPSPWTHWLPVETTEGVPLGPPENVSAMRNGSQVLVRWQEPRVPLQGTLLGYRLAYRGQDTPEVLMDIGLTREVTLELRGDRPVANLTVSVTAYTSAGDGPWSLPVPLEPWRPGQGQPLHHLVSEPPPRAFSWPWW
Put plainly: ELISA on coated mouse AXL ECD (100 ng/well). Here is the method:
(§1) ELISA. ELISAs against human, cyno and mouse AXL ECDs were conducted by immobilizing 100 ng of each protein in wells of Nunc MaxiSorp microplates overnight. Human AXL (aa 1-451) and cyno AXL (aa 1-449) were produced recombinantly as described in Example 10. Mouse AXL was purchased from Sino (cat. 51026-M08H). The next day, plates were blocked with 5% (w/v) dried milk in PBS. Murine mAbs (either hybridoma- or recombinantly-produced) or VHH-Fcs were diluted in PBS containing 1% BSA and 0.1% Tween-20 and added to wells for 2 hours at room temperature. Wells were washed 5× with PBS containing 0.1% Tween-20, then HRP-labeled protein A (diluted 1:1000 in PBS containing 1% BSA and 0.1% Tween™-20) was added to wells for 1 hour at room temperature. Wells were washed again 5× with PBS/0.1% Tween-20 and developed using TMB substrate. Absorbance was measured at 450 nm. As a positive control for mouse AXL binding, a commercial anti-mouse AXL mAb (clone 175128, R&D Systems MAB8541, rat IgG2A) was used and detected with donkey […] secondary antibody.
Background: In an ELISA, binding on a coated surface is turned into a signal by an enzyme label.

Test [2] has as its target T2, recombinant human AXL extracellular domain, C-terminally His8-tagged (rhAXL-ECD) (human, UniProt P30530 26-451).
T2 construct: Made in CHO cells; also called (rh)AXL-ECD His8; human AXL ECD
T2 sequence: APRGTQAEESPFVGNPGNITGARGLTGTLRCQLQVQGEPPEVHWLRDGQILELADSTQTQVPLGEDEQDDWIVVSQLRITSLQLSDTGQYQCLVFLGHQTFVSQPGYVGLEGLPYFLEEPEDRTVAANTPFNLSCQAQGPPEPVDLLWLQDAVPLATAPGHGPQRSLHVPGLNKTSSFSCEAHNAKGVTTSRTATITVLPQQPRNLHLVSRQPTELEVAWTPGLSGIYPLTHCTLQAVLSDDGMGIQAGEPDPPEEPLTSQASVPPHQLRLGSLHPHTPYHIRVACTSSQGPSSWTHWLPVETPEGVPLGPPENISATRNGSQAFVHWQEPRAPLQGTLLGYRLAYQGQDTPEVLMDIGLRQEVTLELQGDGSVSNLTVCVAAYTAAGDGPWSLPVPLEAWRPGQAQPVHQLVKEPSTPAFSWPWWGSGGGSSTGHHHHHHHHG
Kind of test: SPR Biacore T200, mAb captured on anti-Fc, AXL ECD flowed, multi-cycle kinetics. The protocol:
(§2) Surface plasmon resonance. For murine mAbs, binding to human and cynomolgus AXL ECD was assessed using a Biacore T200 instrument. Briefly, either anti-mouse or anti-human Fc antibody was immobilized on a research-grade CM5 series S sensor chip using amine coupling in acetate buffer. Murine or recombinant chimeric murine-human mAbs (mouse VH/VL; human constant regions) were captured, then recombinant human or cyno AXL ECD was flowed over the surface at different concentration ranges (0.1-500 nM) depending on the antibody. The running buffer was PBS/Tween-20 and the flow rate 100 uL/min. All binding studies were performed at 25° C. Surfaces were regenerated using 10 mM glycine, pH 1.5.

Test [3] has as its target T2, recombinant human AXL extracellular …. Put plainly: ELISA on coated AXL ECD (100 ng/well), HRP-protein A. Here is the method:
as §1

Test [4] deals with T3, human AXL expressed on the cell surface of tumor cell lines (human, UniProt P30530 26-894).
T3 construct: whole, on cells; also called cell surface-expressed AXL; cell-based AXL
T3 sequence (looked up): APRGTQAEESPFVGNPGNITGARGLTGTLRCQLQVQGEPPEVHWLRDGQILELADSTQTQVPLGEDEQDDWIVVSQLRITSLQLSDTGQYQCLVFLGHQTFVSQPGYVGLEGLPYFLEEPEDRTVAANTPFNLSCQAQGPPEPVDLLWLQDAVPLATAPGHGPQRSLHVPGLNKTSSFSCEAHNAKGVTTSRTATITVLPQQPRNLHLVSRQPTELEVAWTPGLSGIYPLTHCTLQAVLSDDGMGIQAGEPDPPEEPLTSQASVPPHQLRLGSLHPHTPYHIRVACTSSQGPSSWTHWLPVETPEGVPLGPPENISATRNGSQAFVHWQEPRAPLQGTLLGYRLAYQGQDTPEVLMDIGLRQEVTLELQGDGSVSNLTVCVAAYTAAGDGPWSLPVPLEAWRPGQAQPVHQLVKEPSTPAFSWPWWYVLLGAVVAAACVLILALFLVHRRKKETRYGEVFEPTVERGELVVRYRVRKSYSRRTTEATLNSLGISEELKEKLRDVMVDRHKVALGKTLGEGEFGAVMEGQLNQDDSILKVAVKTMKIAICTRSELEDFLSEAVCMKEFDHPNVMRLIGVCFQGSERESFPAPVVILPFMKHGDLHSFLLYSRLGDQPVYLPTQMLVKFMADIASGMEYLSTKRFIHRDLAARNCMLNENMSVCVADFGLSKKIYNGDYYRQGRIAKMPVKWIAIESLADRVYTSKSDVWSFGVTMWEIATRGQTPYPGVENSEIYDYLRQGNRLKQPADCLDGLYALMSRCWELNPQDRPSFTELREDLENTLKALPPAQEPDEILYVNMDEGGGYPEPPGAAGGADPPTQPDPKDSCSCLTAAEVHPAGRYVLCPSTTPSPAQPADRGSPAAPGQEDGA
Kind of test: FACS on SKOV3 cells, apparent Kd, human Fc format. Here is the method:
(§3) FACS binding assay. Adherent cells were dissociated with non-enzymatic Sigma Cell Dissociation Solution (Cat. No. C5789). Cells suspensions were added to polypropylene, V-bottom 96-well plates and incubated for 2 hours on ice with primary antibodies at concentrations ranging from 100 nM to 0.001 nM or at a single dose of 100 nM (for the non-specific control). After incubation and washes, cells were incubated with fluorescently labeled secondary antibody (Alexa Fluor® 488 anti-human IgG from Jackson Cat. No 709-546-098) for 1 hour on ice, then washed. Cell viability was determined using Fixable viability dye 450 (20 min on ice). Stained cells were fixed in 1% formaldehyde at 4° C. and stored at 4° C. until acquisition which was performed the next day.
(§4) Binding of recombinant chimeric Abs to three cell lines was assessed by FACS as described above. The apparent Bmax and Kd determination is shown below in Table 14.

Test [5] addresses T2, recombinant human AXL extracellular …. Kind of test: SPR, VHH-Fc captured, AXL ECD flowed, single-concentration kinetics (estimate). Here is the method: (§5) For VH Hs and VHH-Fcs, binding to human and cynomolgus AXL ECD was assessed using either a Biacore T200 instrument or a Biacore 3000 instrument. Either human AXL ECD or anti-human Fc antibody was immobilized on a research-grade CM5 series S sensor chip (T200, rhAXL ECD) or a C1 sensor chip (3000, anti-human Fc) using amine coupling in acetate buffer. VHH-Fcs were captured on anti-human Fc surfaces. Either monomeric VHHs (for rhAXL ECD surfaces) or human and cyno AXL ECD (for VHH-Fc surfaces) were flowed over the surfaces at different concentration ranges. Running buffers were HBS-EP (3000) and HBS-EP+(T200). Flow rates were 10-40 ul/min. All binding studies were performed at 25° C. Surfaces were regenerated using 10 mM glycine, pH 1.5.

Test [6] concerns the target T4, recombinant cynomolgus AXL extracellular domain (cynomolgus).
T4 construct: range 1-449; also called Cyno AXL; cyno AXL ECD
Described as above. The protocol: as §5

The target in test [7] is T1, mouse AXL extracellular domain (Sino …). Kind of test: ELISA on coated mouse AXL ECD (100 ng/well), VHH-Fc. Here is the method: as §1
Test [8] has as its target T3, human AXL expressed on the cell surface …. Kind of test: FACS on NCI-H292 cells, apparent Kd, human Fc format. Here is the method: as §3, §4
Test [9] has as its target T2, recombinant human AXL extracellular …. Kind of test: ELISA on coated AXL ECD (100 ng/well), VHH-Fc, HRP-protein A. The protocol: as §1
Test [10] addresses T3, human AXL expressed on the cell surface …. Put plainly: FACS on MDA-MB-231 luciferase cells, apparent Kd, human Fc format. The protocol:
as §3, §4

The target of test [11] is T4, recombinant cynomolgus AXL …. Put plainly: SPR Biacore T200, mAb captured on anti-Fc, AXL ECD flowed, multi-cycle kinetics. Here is the method:
as §2
(Surface plasmon resonance follows binding to a sensor surface in real time, without labels.)

B1: mIgG2 F149-4G4 (antibody, V domains shown)
VH: QIQLVQSGPELKKPGETVKISCKTSGYTFTYYGINWVKQAPGKGLEWMGWINTYLGEPTYADDFKGRFAFSLETSASTAYLQINNLRDEDMATYFCTRGTMSYSFDYWGQGTALTVSS
VL: QNVLTQSPAIMSASPGEEVTMTCRASSSVSSSYLHWYQQKSGASPKLWIYSTSKLASGVPARFSGSGSGTSYSLTISSVEAEDAATYYCHQYSGDPLTFGSGTKLEVK
notes: Printed as mIgG2 (mouse IgG2)
Consider B1, for which, in test [1], the binding result is reported as “no binding”. For the same molecule, in test [2], the Kd came to 1 nM, the off-rate (koff) was 0.0012 s⁻¹ and the kon was found to be 750000 M⁻¹ s⁻¹. Moreover, the EC50 in test [3] is 15 nM.

B2: NRC-sdAb005-Fc (VHH-human IgG1 Fc fusion) (Fc fusion)
chain: QVKLEESGGGLAQAGGSLRLSCAASGSISSINTIGWFRQAPGKQRELVAASDSGANRNYADSVKGRFTISRDNAKNTVYLQMNNLKPEDTAIYYCRAWGTGTISTMYWGQGTQVTVSS
notes: VHH fused N-terminally to human IgG1 Fc; also called NRC-sdAb005-hIgG1; not shown: human IgG1 Fc
As for B2, the Kd in test [4] is 2.03 nM; in [5] it was 34 nM; in test [6] it was 35 nM; in [8], 1.47 nM; in test [10] it was 1.47 nM. Moreover, the results for the koff in test [5] and in [6] were 0.0041 s⁻¹ and 0.0046 s⁻¹, respectively. The figures for the on-rate constant (kon) in test [5] and in test [6] were 120000 M⁻¹ s⁻¹ and 130000 M⁻¹ s⁻¹, respectively. The binding result in test [7] was “no binding”. The EC50 in test [9] came out at 1 nM.

B3: mIgG2 F155-3C7 (antibody, V domains shown)
VH: QVQLQQPGTELVKPGASVKLSCKASGYIFTNFWINWVKQRPGQGLEWIGNIFPGSNSSNYNEKFKNKATLTVDKSSSTAYMHLSSLTSEDSAVYYCVRDYYGGSPDYWGQGTTLTVSS
VL: DIVMSQSPSSLAVSAGEKVTMSCKSSQSLLNSKTRKNYLAWYQQKPGQSPKLLIYWASTRESGVPARFTGSGSGTDFTLTISSVQAEDLAIYYCKHSYNLWTFGGGTKLEIR
notes: Printed as mIgG2 (mouse IgG2)
Regarding B3, the binding result in test [1] was “no binding”. Also, in [2], the Kd was determined as 3 nM, the dissociation rate constant (koff) worked out at 0.0018 s⁻¹ and the kon was found to be 560000 M⁻¹ s⁻¹. For the same molecule, in test [11], the Kd amounted to 25 nM, the koff worked out at 0.0073 s⁻¹ and the association rate constant (kon) came out at 290000 M⁻¹ s⁻¹. In addition, the EC50 in test [3] turned out to be 14 nM.

B4: NRC-sdAb006-Fc (VHH-human IgG1 Fc fusion) (Fc fusion)
chain: QVKLEESGGGLVQAGASLRLSCVASESIFGFNTMGWYRQAPGNERELVASISNSKRTMYADSVKGRFTISRDNAKNTVNLQMNNLKPEDTAVYYCRAWGIITSATVYWGQGTQVTVSS
notes: VHH fused N-terminally to human IgG1 Fc; also called NRC-sdAb006-hIgG1; not shown: human IgG1 Fc
B4: the Kd in [4] is 13.4 nM; in test [5], 24 nM; in test [6], 26 nM; in test [8], 2.12 nM; in [10], 0.832 nM. In addition, the dissociation rate constant (koff) is 0.0021 s⁻¹ in test [5] and 0.0026 s⁻¹ in [6]. The kon in test [5] was 89000 M⁻¹ s⁻¹; in [6], 100000 M⁻¹ s⁻¹. For the same molecule, in [7], the binding result was “no binding”. The concentration for a half-maximal effect (EC50) in test [9] came out at 1 nM.

Usually koff stands for the first-order rate constant of dissociation. What is called kon is a measure of how fast the partners come together. As usually defined, the EC50 is the concentration that produces a half-maximal response.
